Experimental data reported in publication PMC2845155.

System: CC(=O)N[C@H]1[C@@H]2OC[C@@H](O2)[C@@H](O)[C@@H]1O[C@H](C)C(=O)N[C@@H](C)C(=O)N[C@H](CCC(=O)N[C@@H](CCC[C@@H](N)C(=O)O)C(=O)O)C(=O)O
Assay: LC/MS of substrate consumption or product formation, nonlinear regression
Format: biochemical, Citrobacter freundii
Conditions: pH 7.0, hydrolysis at lactyl amide bond

Which results are given for AmpD (Citrobacter freundii)?
Km: 360 ± 10 µM; kcat: 25 ± 2 s⁻¹; kcat/Km: 69000 ± 4000 M⁻¹ s⁻¹
